Test results published in patent publication US7211395.
Residue numbers refer to the chain shown, from its start.

Molecular target: human serum albumin (HSA) (human), P02768
Test: FP
Conditions: modification not given

B1: DX-236 Ala mutant 120 (peptide)
chain: AEGTGDFWFCDRIAWYAQHLCEFLDPEGGGK
Question: Which Kd does the source give for B1 here?
Answer: 1.3 µM

B2: DX-236 Ala mutant 125 (peptide)
chain: B1 chain with D11A, A17P
Question: Which Kd does the source give for B2 here?
Answer: 5 µM

B3: DX-236 Ala mutant 119 (peptide)
chain: B1 chain with A17P, Q18A
Question: B3 was tested. Which Kd did it give?
Answer: 2.2 µM

B4: DX-236 Ala mutant 121 (peptide)
chain: B1 chain with Y16A, A17P
Question: For B4, which Kd is on record?
Answer: 1.4 µM

B5: DX-236 Ala mutant 127 (peptide)
chain: B1 chain with W8A, A17P
Question: For B5, which Kd is on record?
Answer: 2.3 µM

B6: DX-236 Ala mutant 117 (peptide)
chain: B1 chain with A17P, L20A
Question: For B6, which Kd is on record?
Answer: 2 µM

B7: DX-236 Ala mutant 124 (peptide)
chain: B1 chain with R12A, A17P
Question: Which Kd does the source give for B7 here?
Answer: 1.5 µM

B8: DX-236 Ala mutant 128 (peptide)
chain: B1 chain with F7A, A17P
Question: For B8, which Kd is on record?
Answer: 5.1 µM

B9: DX-236 Ala mutant 129 (peptide)
chain: B1 chain with D6A, A17P
Question: B9 was tested. Which Kd did it give?
Answer: 5.1 µM

B10: DX-236 Ala mutant 122 (peptide)
chain: B1 chain with W15A, A17P
Question: How did the Kd turn out when B10 was run?
Answer: 1.4 µM
